From patent US20070249530A1 (Genentech, published 2007)

B1: BCMA ECD purified from baculovirus expression (receptor, not shown: small tags and cut ends)
chain: MAGQCSQNEYFDSLLHACIPCQLRCSSNTPPLTCQRYCNASVTNSVKGTN
notes: also called BCMA(baculovirus); baculovirus BCMA

What was measured:
[1] = target: T1, Human BAFF (residues 82-285) (human, UniProt Q9Y275 82-285); test: SPR (BIAcore 3000), BAFF immobilized, 1:1 model
T1 construct: also called BAFF82-285
Experimental: CM5 chips from BIAcore were docked according to manufacturer instructions. Then, BIAcore system was primed with 0.2 μm filtered buffer containing 10 mM Hepes pH 7.2, 150mM NaCl, 0.005% Tween20. After buffer priming, the flow cells were normalized with 70% glycerol. Each flow cell surface was activated individually in preparation for linkage of the ligand to the chip with a 1:1 mixture of EDC(N-ethyl-N′-(3-dimethyl aminopropyl)-carbodiimide hydrochloride) and NHS (N-hydroxysuccinimide). […] Generally, the ligand to be immobilized (30 μg/ml in 10 mM NaOAc, pH 5 buffer) was injected into the system at 40 μl/min. Once approximately 400 RU was generated, the flow cell was blocked with ethanolamine. […] The system was then primed again.
The ligand-receptor complex was allowed to dissociate by washing the flow cell at 30 μl/min for 600 seconds. Alternatively, if several binding measurements over the same flow cell were to be performed, the ligand-receptor complex was allowed to dissociate by washing the flow cell at 30 μl/min for 900 seconds. Sensorgrams were recorded for each binding assay. A 1:1 Langmuir binding equation was used to simultaneously fit the association and dissociation rates of the ligand-analyte interactions. kₐ, kd, KD were calculated using curve fit analysis software provided with the BiaCore instrument

[2] = target: T1, Human BAFF (residues 82-285); test: competitive displacement ELISA on immobilized BAFF; unbiotinylated BCMA-Fc varied, tracer biotinylated miniBR3
Experimental: The plate washed with PBS and blocked for 1 hr with 200 μl of 0.2% BSA in PBS at room temperature. […] The plate washed with PBS/Tween-20 and incubated with 100 μl/well of 0.1 U/ml Streptavidin-POD (Boehringer Mannheim) for 15 minutes at room temperature. After washing the plate with PBS/0.05% Tween-20 followed by a final wash in PBS, the plate was incubated for 5 min with 100 μl/well PBS substrate solution containing 0.8 mg/ml OPD (Sigma) and 0.01% H₂O₂.

[3] = target: T1, Human BAFF (residues 82-285); test: competitive displacement ELISA; immobilized BAFF, tracer biotinylated mini-BR3; bivalent Fc construct (avidity); competition ELISA
[4] = target: T1, Human BAFF (residues 82-285); test: SPR (BIAcore 3000), BAFF immobilized

T1 sequence (Q9Y275 82-285): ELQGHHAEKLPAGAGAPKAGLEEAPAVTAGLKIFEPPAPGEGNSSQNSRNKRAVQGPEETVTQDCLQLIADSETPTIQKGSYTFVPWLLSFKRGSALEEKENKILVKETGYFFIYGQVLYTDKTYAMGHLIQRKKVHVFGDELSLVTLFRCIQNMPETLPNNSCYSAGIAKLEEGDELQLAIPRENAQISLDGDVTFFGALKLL

| Binder | Kd [1] [nM] | koff [1] [s⁻¹] | kon [1] [M⁻¹ s⁻¹] | IC50 (read off the curve) [2] [nM] | IC50 [3] [nM] | binding result [4] |
| --- | --- | --- | --- | --- | --- | --- |
| AGQCSQNEYFDSLLHACIPCQLRCSSNTPPLTCQRYCNASVTNSVKG (Fc fusion, not shown: a dimerising Fc or GST, also called BCMA(wt)-Fc; BCMA-Fc wt) [BCMA-Fc] | 4.9 | 0.0034 | 680000 | ~9 | 13 | – |
| B1 | – | – | – | – | – | no binding (tested: analyte 6.25 nM to 200 nM) |
